Values of other authors in publication PMC4245495.

Target: Uroplakin Ia (UniProt O00322)
Chain of UniProt O00322 (O00322 whole entry): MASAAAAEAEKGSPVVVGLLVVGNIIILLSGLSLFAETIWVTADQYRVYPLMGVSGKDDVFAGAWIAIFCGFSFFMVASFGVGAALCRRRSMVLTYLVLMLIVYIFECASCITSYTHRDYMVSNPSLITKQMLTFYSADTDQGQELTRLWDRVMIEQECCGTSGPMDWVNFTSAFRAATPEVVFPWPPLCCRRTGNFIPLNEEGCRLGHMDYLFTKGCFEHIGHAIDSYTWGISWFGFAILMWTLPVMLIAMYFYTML

Kd: 0.1 µM
Substance: FimH (from UniProt P08191)
